Results published in patent US20150299285A1 (INDIANA UNIVERSITY RESEARCH AND TECHNOLOGY, published 2015).
Where “and” joins values, the source holds several entries; their conditions need not be identical. Equal entries are not always repeated. Where two headings read alike, the source gives them in different places. Bridges are numbered along the chain shown (N, C = ends). Roman numbers before positions name the chains, in order. Where no end group is shown, it is not given here. [ ]: non-standard residue; d: D form. Phe(4-NH2) = Nc1ccc(C[C@H](N)C(=O)O)cc1

B1: MIU-58: B1-PEG20K-B1- Dimer (ligand)
chain: {PEG 20 kDa}-GPEHLCGAELVDALYLVCGDRGFYGYGSSSRRAPQTGIVDECCFRSCDLRRLENYCN
modifications: disulfide 18-56, 42-47, 6-43; also: dimer: two chains linked head to head via 20 kDa PEG
B2: DP22LysC (ligand)
chain 1: APPPSLPSPSRLPGPSDTPILPQEEEEERGPEHLCGAHLVDALYLVCGDRGFYSSSSRAPPPSLPSPSRLPGPSDTPILPQK
chain 2: GIVDECCHRSCDLRRLENYCN
B3: IGF-1 A:B(E10 Y16L17)-E31E32 B-COOH (ligand)
chain 1: GIVDECCFRSCDLRRLEMYCA-NH2
chain 2: GPETLCGAELVDALYLVCGDRGFYFNKPTEE-OH
modifications: disulfide I:6-I:11, I:20-II:18, I:7-II:6
B4: DP20 Lys C (two chain form of DP20) (ligand)
chain 1: GPEHLCGAHLVDALYLVCGDRGFYSSSSRAPPPSLPSPSRLPGPSDTPILPQK
chain 2: GIVDECCHRSCDLRRLENYCN
B5: IGF1(Y^B16L^B17)(AlaPro)^A-1,0 (ligand)
chain 1: APGIVDECCFRSCDLRRLEMYCA
chain 2: GPETLCGAELVDALYLVCGDRGFYFNKPT
B6: MIU-67: B0, C8-PEG10K di-PEGylated B^1(H5,Y16,L17)25-C^1(K8)-A^1(N18,21) (ligand)
chain: {PEG 10 kDa}-GPEHLCGAELVDALYLVCGDRGFYGYGSSSRK(PEG 10 kDa)APQTGIVDECCFRSCDLRRLENYCN
modifications: disulfide 18-56, 42-47, 6-43
B7: DP22: CTP-E5R-B chain-CTP(K)-A Chain (ligand)
chain: MGSSSSKAPPPSLPSPSRLPGPSDTPILPQEEEEERGPEHLCGAHLVDALYLVCGDRGFYSSSSRAPPPSLPSPSRLPGPSDTPILPQKGIVDECCHRSCDLRRLENYCN
B8: IGF-1 A:In (1-17)-IGF-1 B (18-30) (ligand)
chain 1: GIVDECCFRSCDLRRLEMYCA-NH2
chain 2: FVNQHLCGSHLVEALYLVCGDRGFYFNKPT-NH2
modifications: disulfide I:6-I:11, I:20-II:19, I:7-II:7
B9: IGF-1 A:In B(1-5)-IGF-1 B(YL)(6-30) (ligand)
chain 1: GIVDECCFRSCDLRRLEMYCA
chain 2: FVNQHLCGAELVDALYLVCGDRGFYFNKPT
modifications: not fully specified (bridges); cysteine pairing not given here; also: C-terminal amide, chain not given here
B10: MIU-68: B0, B22-PEG10K di-PEGylated B^1(H5,Y16,L17, K22)25-C^1(K8)-A^1(N18,21) (ligand)
chain: {PEG 10 kDa}-GPEHLCGAELVDALYLVCGDK(PEG 10 kDa)GFYGYGSSSRKAPQTGIVDECCFRSCDLRRLENYCN
modifications: disulfide 18-56, 42-47, 6-43
B11: IGF1(Y^B16L^B17) (ligand)
chain 1: GIVDECCFRSCDLRRLEMYCA
chain 2: GPETLCGAELVDALYLVCGDRGFYFNKPT
notes: Two chain heteroduplex; may be the same molecule as m22; also called IGF1 (Y^B16L^B17) analog; IGF1 A:B(Y^B16L^B17)
B12: IGF-1 A:B (ligand)
chain 1: GIVDECCFRSCDLRRLEMYCA-NH2
chain 2: GPETLCGAELVDALQFVCGDRGFYFNKPT-NH2
modifications: disulfide I:6-I:11, I:20-II:18, I:7-II:6
notes: also called IGF-1 A and B chain heteroduplex
B13: MIU-35: B^1(H5, H10, Y16, L17)25-C^1-A^1 (H8, N18, N21) (ligand)
chain: GPEHLCGAHLVDALYLVCGDRGFYGYGSSSRRAPQTGIVDECCHRSCDLRRLENYCN
B14: DP20: GE5K-B chain-CTP(K)-A Chain (ligand)
chain: GEEEEEKGPEHLCGAHLVDALYLVCGDRGFYSSSSRAPPPSLPSPSRLPGPSDTPILPQKGIVDECCHRSCDLRRLENYCN
B15: MIU-57: B1-PEG20K B^1(H5,Y16,L17)25-C^1-A^1(N18,21) (ligand)
chain: {PEG 20 kDa}-GPEHLCGAELVDALYLVCGDRGFYGYGSSSRRAPQTGIVDECCFRSCDLRRLENYCN
modifications: disulfide 18-56, 42-47, 6-43
B16: IGF1(Y^B16L^B17)(p-NH2-F)^A19amide (ligand)
chain 1: GIVDECCFRSCDLRRLEM[Phe(4-NH2)]CA
chain 2: GPETLCGAELVDALYLVCGDRGFYFNKPT
modifications: disulfide I:6-I:11, I:20-II:18, I:7-II:6; not fully specified (C-terminus); also: amide in name, site not given here
notes: also called IGF1 A:B(Y^B16L^B17)(p-NH2-F)^A19amide; IGF1 (Y^B16L^B17) A(p-NH2-F)^19
B17: IGF-1 A:B (H5D10Y16L17) (S=O)DPI (ligand)
chain 1: GIVDECCFRSCDLRRLEMYCA-NH2
chain 2: GPEHLCGADLVDALYLVCGDRGFY-NH2
modifications: disulfide I:6-I:11, I:20-II:18, I:7-II:6; also: (S=O), residue not given here
notes: the only Met stands at A18
B18: MIU-69: B0, A14-PEG10K di-PEGylated B^1(H5,Y16,L17)25-C^1(K8)-A^1(K14, N18,21) (ligand)
chain: {PEG 10 kDa}-GPEHLCGAELVDALYLVCGDRGFYGYGSSSRKAPQTGIVDECCFRSCDLK(PEG 10 kDa)RLENYCN
modifications: disulfide 18-56, 42-47, 6-43
B19: IGF-2 AB(YL) (ligand)
chain 1: not shown
chain 2: AYRPSETLCGGELVDTLYLVCGDRGFYFSRPA
modifications: C-terminal amide
B20: IGF-1 A:B (H5D10Y16L17) DPI (ligand)
chain 1: GIVDECCFRSCDLRRLEMYCA-NH2
chain 2: GPEHLCGADLVDALYLVCGDRGFY-NH2
modifications: disulfide I:6-I:11, I:20-II:18, I:7-II:6
B21: IGF-1 A:B(D10Y16L17) DPI A-COOH (ligand)
chain 1: GIVDECCFRSCDLRRLEMYCA-OH
chain 2: GPETLCGADLVDALYLVCGDRGFY-NH2
modifications: disulfide I:6-I:11, I:20-II:18, I:7-II:6
B22: IGF-1 A (H8 A9 N21):B(H5D10Y16L17) DPI A-COOH (ligand)
chain 1: GIVDECCHASCDLRRLEMYCN-OH
chain 2: GPEHLCGADLVDALYLVCGDRGFY-NH2
modifications: disulfide I:6-I:11, I:20-II:18, I:7-II:6
B23: IGF-1 A (H8 A9 N21):B(H5D10Y16L17 A22) DPI A-COOH (ligand)
chain 1: GIVDECCHASCDLRRLEMYCN
chain 2: GPEHLCGADLVDALYLVCGDAGFY
B24: IGF-1 A:B (E10Y16L17) DPI (ligand)
chain 1: GIVDECCFRSCDLRRLEMYCA-NH2
chain 2: GPETLCGAELVDALYLVCGDRGFY-NH2
modifications: disulfide I:6-I:11, I:20-II:18, I:7-II:6
B25: IGF-1 A:B(E10Y16L17) (ligand)
chain 1: GIVDECCFRSCDLRRLEMYCA
chain 2: GPETLCGAELVDALYLVCGDRGFYFNKPT
modifications: disulfide I:6-I:11, I:20-II:18, I:7-II:6; not fully specified (C-terminus)
B26: IGF-1 A:IGF-1 B(1-8)-In (9-17)-IGF-1 B(18-30) (ligand)
chain 1: GIVDECCFRSCDLRRLEMYCA-NH2
chain 2: GPETLCGSHLVEALYLVCGDRGFYFNKPT-NH2
modifications: disulfide I:6-I:11, I:20-II:18, I:7-II:6

Experiments:
human IGF-1 receptor [1] = molecular target: T1, human IGF-1 receptor (human, UniProt P08069 31-1367); assay: cell-based or functional assay
human IGF-1 receptor [2] = molecular target: T1, human IGF-1 receptor; assay: cell-based or functional assay; remark: listed apart in the source
human IGF-1 receptor [3] = molecular target: T1, human IGF-1 receptor; assay: competition with 125I-IGF-1, receptor membranes, SPA
human insulin receptor [4] = molecular target: T2, human insulin receptor (human, UniProt P06213 28-1382); assay: competition with 125I-insulin, receptor membranes, SPA
T2 construct: whole, on cells

human insulin receptor [5] = molecular target: T2, human insulin receptor; assay: as above; remark: listed apart in the source
human insulin receptor [6] = molecular target: T2, human insulin receptor; assay: as above; remark: listed apart in the source
human insulin receptor [7] = molecular target: T2, human insulin receptor; assay: as above; remark: listed apart in the source
human IGF-1 receptor [8] = molecular target: T1, human IGF-1 receptor; assay: cell-based or functional assay; remark: listed apart in the source
human insulin receptor [9] = molecular target: T2, human insulin receptor; assay: cell-based or functional assay

| Binder | % IGF-1 (in test) (human IGF-1 receptor [3]) [%] | % native IGF-1 activity (0.55 nM) (human IGF-1 receptor [3]) [%] | IC50 (human IGF-1 receptor [3]) | IC50 (human insulin receptor [5]) | further results |
| --- | --- | --- | --- | --- | --- |
| B1 | – | – | – | – | % Insulin Activity (in vitro; assay not stated) (human IGF-1 receptor [1]): 2.6% |
| B2 | – | – | – | – | EC50, phosphorylation (FIG. 18C) (human IGF-1 receptor [2]): 14.8 nM |
| B3 | 3 | 3.1 | 17.5 nM | – | – |
| B4 | – | – | – | – | EC50, phosphorylation (FIG. 18C) (human IGF-1 receptor [2]): 8.23 nM |
| B5 | – | – | – | – | IC50 (human insulin receptor [4]): 1.93 nM |
| B6 | – | – | – | – | % Insulin Activity (in vitro; assay not stated) (human IGF-1 receptor [1]): < 0.1% |
| B7 | – | – | – | – | EC50, phosphorylation (FIG. 18C) (human IGF-1 receptor [2]): 83.1 nM |
| B8 | 0.9 | 0.9 | 62.5 nM | 2.77 nM and 2.67 nM and 2.48 nM | – |
| B9 | 3.6 | 2 | 27.5 nM | – | – |
| B10 | – | – | – | – | % Insulin Activity (in vitro; assay not stated) (human IGF-1 receptor [1]): < 0.1% |
| B11 | – | – | – | – | IC50 (human insulin receptor [6]): 0.51 nM |
| B12 | – | – | – | 10.4 nM | % insulin (in test) (human insulin receptor [5]): 5.8%; % native insulin activity (0.6 nM) (human insulin receptor [5]): 5.8% |
| B13 | – | – | – | – | % Insulin Activity (in vitro; assay not stated) (human IGF-1 receptor [1]): 3.2% |
| B14 | – | – | – | – | EC50, phosphorylation (FIG. 18C) (human IGF-1 receptor [2]): 316 nM |
| B15 | – | – | – | – | % Insulin Activity (in vitro; assay not stated) (human IGF-1 receptor [1]): 1.2% |
| B16 | – | – | – | – | IC50 (human insulin receptor [7]): 1.08 nM |
| B17 | – | – | – | 0.25 nM | % insulin (in test) (human insulin receptor [5]): 316% |
| B18 | – | – | – | – | % Insulin Activity (in vitro; assay not stated) (human IGF-1 receptor [1]): < 0.1% |
| B19 | – | – | – | 6.81 nM | – |
| B20 | 11.2 | 11.8 | 4.66 nM | 0.16 nM | % IGF, total phosphorylation (human IGF-1 receptor [8]): 7.1%; % insulin (in test) (human insulin receptor [5]): 479% |
| B21 | 7.7 | 8.1 | 6.79 nM | 0.2 nM and 0.42 nM and 0.26 nM | % Insulin, total phosphorylation (human insulin receptor [9]): 1580%; % IGF, total phosphorylation (human IGF-1 receptor [8]): 112% |
| B22 | 12.9 | 13.6 | 4.03 nM | 0.05 nM and 0.09 nM | % IGF, total phosphorylation (human IGF-1 receptor [8]): 181% |
| B23 | 2.3 | 2.4 | 22.8 nM | 0.12 nM | % IGF, total phosphorylation (human IGF-1 receptor [8]): 7.7% |
| B24 | 3.3 | 2.4 | 22.9 nM | – | – |
| B25 | – | – | 7.85 nM and 12.2 nM | 0.66 nM and 0.51 nM | % Insulin, total phosphorylation (human insulin receptor [9]): 49.2%; % IGF, total phosphorylation (human IGF-1 receptor [8]): 13% |
| B26 | 0.3 | 0.4 | 131 nM | 1.59 nM | % insulin (in test) (human insulin receptor [5]): 19.1%; % native insulin activity (0.6 nM) (human insulin receptor [5]): 37.7% |
